Where “and” joins values, the source holds several entries; their conditions need not be identical. Identical values can stand only once.
Target: the molecule itself
Test: crystal structure

B1: N-terminal membrane anchoring domain of mycobacterial Wag31 (domain or fragment)
chain: PLTPADVHNVAFSKPPIGKRGYNEDEVDAFLDLVENELTRLIEENSDLRQRINELDQEL
stoichiometry N: 2 and 4
